Columns and labels:
[1] = molecular target: yeast-displayed human LIF (hLIF, Ser23 to Phe203) (human) (UniProt P15018); test: not stated; Supplementary Fig. 7b, not shown; told only in the discussion
[2] = molecular target: recombinant human LIF, histidine-tagged (hLIF-His) (UniProt P15018); test: flow cytometry of yeast-displayed LIFR variants; conditions: read off a plot
[3] = molecular target: yeast-displayed mouse LIFR (mouse) (UniProt P42703); test: flow cytometry on cells; receptor displayed on yeast, soluble cytokine titrated in PBS with 1 mg/ml BSA; bound cytokine detected by fluorescent antibodies; apparent Kd by non-linear regression
[4] = molecular target: yeast-displayed eLIFR CBM I–Ig-like domains ('VPRVVAID') (human); test: flow cytometry on cells; LIFR constructs displayed on yeast (EBY100), soluble tagged cytokine (LIF-His and others) in PBS with 1 mg/ml BSA, detected by antibody to the tag; gated on c-myc-positive yeast; apparent affinity by non-linear regression

Sequence of yeast-displayed mouse LIFR (mouse) (P42703 44-1092): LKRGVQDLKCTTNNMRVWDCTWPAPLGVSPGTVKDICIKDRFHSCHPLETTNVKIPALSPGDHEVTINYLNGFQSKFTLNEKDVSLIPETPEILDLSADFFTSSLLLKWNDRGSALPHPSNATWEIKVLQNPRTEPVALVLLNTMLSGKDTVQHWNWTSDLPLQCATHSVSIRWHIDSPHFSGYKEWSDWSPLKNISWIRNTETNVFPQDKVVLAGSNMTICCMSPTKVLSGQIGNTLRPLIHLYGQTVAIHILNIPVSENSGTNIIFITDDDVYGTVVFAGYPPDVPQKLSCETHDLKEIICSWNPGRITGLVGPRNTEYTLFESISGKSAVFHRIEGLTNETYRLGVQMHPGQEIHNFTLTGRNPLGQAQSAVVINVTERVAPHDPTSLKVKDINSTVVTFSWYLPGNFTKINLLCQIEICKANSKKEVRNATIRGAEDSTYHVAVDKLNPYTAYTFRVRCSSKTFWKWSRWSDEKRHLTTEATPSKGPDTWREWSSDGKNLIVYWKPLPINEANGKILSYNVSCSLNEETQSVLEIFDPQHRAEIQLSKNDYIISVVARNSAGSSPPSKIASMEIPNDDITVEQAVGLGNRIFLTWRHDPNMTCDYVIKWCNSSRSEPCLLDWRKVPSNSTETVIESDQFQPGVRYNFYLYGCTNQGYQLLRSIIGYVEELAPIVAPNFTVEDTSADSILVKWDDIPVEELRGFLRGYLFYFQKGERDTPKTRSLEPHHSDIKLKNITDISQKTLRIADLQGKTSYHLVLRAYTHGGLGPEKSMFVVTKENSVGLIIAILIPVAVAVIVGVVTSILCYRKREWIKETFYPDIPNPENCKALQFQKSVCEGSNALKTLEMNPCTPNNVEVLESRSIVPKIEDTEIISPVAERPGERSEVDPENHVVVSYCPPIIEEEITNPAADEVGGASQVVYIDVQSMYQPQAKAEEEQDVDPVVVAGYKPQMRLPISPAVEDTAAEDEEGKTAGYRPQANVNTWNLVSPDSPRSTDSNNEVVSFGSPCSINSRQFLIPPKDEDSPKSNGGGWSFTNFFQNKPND
Sequence of mLIFR-Fc (mouse LIFR CBM I–Ig-like–CBM II fused to an antibody Fc domain) (P42703 44-529): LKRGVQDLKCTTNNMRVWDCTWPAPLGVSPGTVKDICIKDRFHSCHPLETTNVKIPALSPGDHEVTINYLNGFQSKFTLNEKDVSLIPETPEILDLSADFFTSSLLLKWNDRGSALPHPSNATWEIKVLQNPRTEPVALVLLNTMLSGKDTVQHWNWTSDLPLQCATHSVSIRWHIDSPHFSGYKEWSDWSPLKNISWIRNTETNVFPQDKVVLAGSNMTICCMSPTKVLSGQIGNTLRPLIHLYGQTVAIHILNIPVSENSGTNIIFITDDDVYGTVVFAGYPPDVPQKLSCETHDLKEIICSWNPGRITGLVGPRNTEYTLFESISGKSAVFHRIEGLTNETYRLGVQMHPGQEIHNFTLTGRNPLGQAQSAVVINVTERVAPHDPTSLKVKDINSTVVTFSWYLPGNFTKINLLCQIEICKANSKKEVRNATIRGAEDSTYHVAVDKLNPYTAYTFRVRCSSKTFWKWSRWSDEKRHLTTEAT
Sequence of yeast-displayed wild-type human LIFR CBM I–Ig-like domains (Gln45 to Gln337) (P42702 45-337, stated change not applied): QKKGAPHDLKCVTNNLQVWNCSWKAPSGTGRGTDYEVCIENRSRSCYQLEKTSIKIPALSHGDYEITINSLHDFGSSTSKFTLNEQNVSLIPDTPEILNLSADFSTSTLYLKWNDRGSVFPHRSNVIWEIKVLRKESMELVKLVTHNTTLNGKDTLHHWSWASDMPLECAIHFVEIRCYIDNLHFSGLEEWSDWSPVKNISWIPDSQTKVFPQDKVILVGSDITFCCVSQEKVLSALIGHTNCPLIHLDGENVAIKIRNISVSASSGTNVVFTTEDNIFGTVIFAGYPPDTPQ

Which Kd [1] does the source give for “mLIFR-Fc (mouse LIFR CBM I–Ig-like–CBM II fused to an antibody Fc domain) (from UniProt P42703 44-529) (Fc fusion)” here?
Its Kd is 1 pM.

For “yeast-displayed wild-type human LIFR CBM I–Ig-like domains (Gln45 to Gln337) (from UniProt P42702) PRDSAID”, which ratio to parent [2] is on record?
The ratio to parent was 5.2.

Which Kd [3] does the source give for “recombinant human LIF-His (from UniProt P15018 23-202) (ligand)” here?
The Kd was 1.1 pM.

How did the Kd [4] turn out when “recombinant human LIF, histidine-tagged (hLIF-His) (from UniProt P15018 23-202) (ligand)” was run?
The Kd was 0.04 nM.
